Laboratory results: the DeepSol protein solubility set

assay: soluble on expression in E. coli; label from the status in PepcDB or PDB records

Row | Sequence | soluble on expression in E. coli
1 | MGSDKIHHHHHHMRNPPFIVEYELTLRCNFRCKHCYCEAGKPHLEELSFEEIKELILDMKELGTWALDIVGGEPLLHPQILDILAFGKEVGQRLMINTNGSLATKEMVQKIKKANPDVLIGVSLEGPDPETNDFVRGTGNFKRAVQGIKNFVDEGFQVTILNVINKRNWRKFEDMVKLALELGVNALYVDRFIPVGRGMIHARELDMNPEEWRVAIKHVLGVIENYKNHLTFYVEESISGKPCSAGITHASVLADGTVVPCGHFRYRKEFYMGNVREKKFSEIWHEYTPIPSPASCQQCPILNECGGGCKAYYLLREHEKDEAICFLNKERYNIK | not soluble
2 | MNEPPVSVVLPTYDRPEILRNAVKSVQEQTYRHIELVVVDDHSPTPAADTLSPLSFDELTVEIIRHEENRGANEARNTGIRESTGEYIAFLDDDDDWAPSKIEKQVAVFREASPEVGVVYTGSEYVYDDYVRTVVFSLEGDVTEEMLRGRSLGEFTTLMVRRDVAMAAGLPDTDFPSWQDRDWLLRLSCHCKFKTVPEALTTRRRKTGEDSISDNFEEKRDISYPLFIEKHRDLAAEYGWRCERAFMAATTESLGQEALKNGYYADAKKYFLKALRYHPLDRSRLVYALVAYGGKYTYGAAHTLASLLHRVRTDTIHKLEHHHHHH | not soluble
3 | LFTESAKAVLAIAQEEAKYFRHQSVGSEHLLLALVLEPNGIAGKTLRQLNTDTEDIREEIEHLSGYGTMQSPMGNNNLYLPYSPRAKQIFAYAGDEAKRLGAQKIGTEHLLLGLLRDEEILASRILVNLGLSLSKMRQLLLKKMG | not soluble
4 | MSLNARARALRHSRSGTIGLIVPDVNNAVFADMFSGVQMAASGHSTDVLLGQIDAPPRGTQQLSRLVSEGRVDGVLLQRREDFDDDMLAAVLEGVPAVTINSRVPGRVGSVILDDQKGGGIATEHLITLGHSRIAFISGTAIHDTAQRRKEGYLETLASAGLRSEAAWVVDAGWEADAGSAALNTLYRGANLGKPDGPTAVVVASVNAAVGALSTALRLGLRVPEDLSIVGINTTWVSDTVYPALTTVRLPLQRLGEVAADVLMEHLGGRALTDTVVTQPTPELLVRETTAPPTREGHHHHHH | soluble
5 | MGSDKIHHHHHHMASLLALDFDGVLCDGLREYFLAAWQAGCDRDPSWPEVPEPSLEDRFRLLRPVIEQGWEMPVLLQALRREVADAEVLADWPQLCDRVLKDWGLTTTELSQAMDRVRDRWIKRDRKEWLQLHHFYPGVAERLAQQTAPWVIISTKDGRFIAELLEQIPNLQPPLAIYGKEVGVPKTQTLIQLQVEFEQIAFVEDRLPALEAAAQLESVDLYLADWGYNTDRDRQQAMTSDRIQLLRLTDFSSGRSPALAASPVES | not soluble
6 | MAKILVFDEAARRALERGVNAVANAVKVTLGPRGRNVVLEKKFGSPTITKDGVTVAKEVELEDHLENIGAQLLKEVASKTNDVAGDGTTTATVLAQAIVREGLKNVAAGANPLALKRGIEKAVEAAVEKIKALAIPVEDRKAIEEVATISANDPEVGKLIADAMEKVGKEGIITVEESKSLETELKFVEGYQFDKGYISPYFVTNPETMEAVLEDAFILIVEKKVSNVRELLPILEQVAQTGKPLLIIAEDVEGEALATLVVNKLRGTLSVAAVKAPGFGDRRKEMLKDIAAVTGGTVISEELGFKLENATLSMLGRAERVRITKDETTIVGGKGKKEDIEARINGIKKELETTDSEYAREKLQERLAKLAGGVAVIRVGAATETELKEKKHRFEDALNATRAAVEEGIVPGGGVTLLRAISAVEELIKKLEGDEATGAKIVRRALEEPARQIAENAGYEGSVIVQQILAETKNPRYGFNAATGEFVDMVEAGIVDPAKVTRSALQNAASIGALILTTEAVVAEKPEKKESTPAFAGAGDMDF | soluble
7 | AGQGESGNPPATDKERFIASLMARMSNAEKIGQLRLVSVGADHPKEALMADIRAGKVGAIFNTVTRPDIRAMQDQVRHSRLKIPLFHAYDVAHGHRTIFPISLGLAASWDPEVVARSARISALEASADGLDMSFSPMVDITRDARWGRVSEGFGEDTYLTSLLSGVMVRAYQGSNLAAPDSIMAAVKHFALYGAAEGGRDYNTVDMSLPRMFQDYLPPYKAAVDAGAGAVMVSLNTINGVPATANRWLLTDLLRQQWGFKGLTISDHGAVKELIKHGLAGNERDATRLAIQAGVDMNMNDDLYSTWLPKLLAAGEIDQADIDRACRDVLAAKYDLGLFADPYRRLGKPDDPPFDTNAESRLHRQAAREVAREGLVLLKNRDGLLPLKKQGRIAVIGPLAKSQRDVIGSWSAAGVPRQAVTVYQGLANAVGERATLLYAKGANVSGDQAILDYLNSYNPEVEVDPRSAEAMLEEALRTARDADLVVAVVGESQGMAHEASSRTDLRIPASQRRLLKALKATGKPLVLVLMNGRPLSLGWEQENADAILETWFSGTEGGNAIADVLFGEHNPSGKLTMSFPRSVGQVPVYYNHLNTGRPMDHDNPGKYTSRYFDEANGPLYPFGYGLSYTEFSLSPLRLSSERLARGATLEARVTLSNSGKRAGATVVQLYLQDPVASLSRPVKELRGFRKVMLEPGESREIVFRLGEADLKFYDSQLRHTAEPGEFKVFVGLDSAQTESRSF | not soluble
8 | MGSDKIHHHHHHLIQYAQAVMRHEAVAAIVAEIVARYQAIADDFELEASIMAAIEEELDQLPKLTFKNNDYLMAGFKARGEKLNAFLMTAVLNHEGIEATYGEPKSLGIVVTDHPNDAEVSRETYRNLATFRRPIGVLVVPGFYGYTSDDDIATFSRGGSDITGAILANGFHADLYENFTDVDGVAAADPRVVANPQMIREMTYREMRELSYGGFGVFHDEAILPAIAGQVPINLKNTNHPAAPGTMIVPEQHFVPKHAITGIVSSQHFGAIYLHRYLLNKEVGFTLKILQVLAHNGISYEHMPSGIDDLTIILDDRQLTEAKRKTICAEIQAAVHPDVLKWIDDYAIIMVVGEGMAQRTGLIQTILQPLATAGVHVSMINEGASQISLMLGTSRESANRAVKTIYNAFFIPINQRLEVH | not soluble
9 | MEDLDAYRAACANRIRRLERYKKARSFCSLETDEPTSSSPSLSSNSDVSQENGSSTFDMIREKMFSLMENDMTLLKQLLQLGDQISEIKKERLRRTMSQNSLEYDEEDEKEDKFDSGFSASMSAVTNLYVDDERPQFFSRQNSVLRIPIPPRSSNRFGPRRVIRRPSDILPRQQTNNIRTLHVNSDDSDSSSSGSKTHSPSSSVYNASTLILPSKTTKNRSSNSSIDSGIRDEQLTPSPTFESVVI | not soluble
10 | SSSSSDGGLFRSRPAHSLPPGEDGRVEPYVDFAEFYRLWSVDHGEQSVMTAP | soluble
11 | MPQFLKGVTLENREGDELPAEEHLKGKIIGLYFSASWCPPCRAFTPKLKEFFEEIKKTHPEFEIIFVSRDRNSSDLVTYFKEHQGEWTYIPFGSDKIMSLMQKYEVKTIPAMRIVNDQGEVIVQDARTEIQNKGENVEGLWAEWMALIK | not soluble
12 | MNEKFRTDLAHTFGIALEEQTDVLSFHDNDGHEWILECASQSEILFFYCYLLNSESIQINSILEMNSNRELLGMFFLSLKDDNILLNIAFPADKIDITEFANLMENGYLLKNEIIRSLSSRPTDFLP | not soluble
13 | GSRTGSESSRPNTALLDPSSPEFSAVVSVGDWLQAIKMDRYKDNFTAAGYTTLEAVVHMSQDDLARIGITAITHQNKILSSVQAMRTQMQQMHG | soluble
14 | MAHHHHHHMKMISFNVFRHVESPACCPPASFVADLSITSKKNTHKHLLSFFIFPLFLESLSVMLPTQKPVLFTPGPLMTSDTVKEAMLTDYASRDIRFVQAVKFIREELISVAGLDPQKWACILQQGSGSMGIEAAISTIFPRTGGKFLLINSGKYSEKQACVVKRLQFPMVMLKMGEGEELKMSALESIIRANPDITTVGFVHHETSTGMLYPAEQIAEVVRRELPKAKIIIDGISAFGGIPCDYEKACDVLVAAPNKCLHSVPGISIILARRLLIEAAKGCARSATLDLSMQLMSFDKSGQFAVTPPVHVVMALQQALVEYKRDGGLSGRQKTYQAKAQLVREAVKAMGFTLFLGESKPSCANVVVCVNMPRDPRWNFKRFYTYLNERGLIIYPGKASHAETFRFGIIGHTSLANCERLMKCAKEALKSMGIDHLQRKSNM | not soluble
15 | MSLNDNNTILGFDVNLICDFFLNTERQGPGSPEVTLKALSFIDNLTNKSLIADLGCGTGGQTMILAQHVPGKITGIDFFPGFIERFNKNAEKLNLQNRVKGIVGSMDDLSFEKDSLDLIWSEGAIYNIGFERGLKEWRNYLKPGGYLAVSESVWFTDQRPAEIHDFWMSAYTEIDTVPNKVAQIQKAGYIPVATFILPENCWIEHYFAPQAKAEEIFRRKHAGSRIVEELITSNHHEAELYSKYKAYYGYAFFICKKGFSLREGHHHHHH | soluble
16 | PEITGQVSLPPGKRTNLRKTGSERIAHGMRVKFNPLPLALLLDSSLEGEFDLVQRIIYEVDDPSLPNDEGITALHNAVCAGHTEIVKFLVQFGVNVNAADSDGWTPLHCAASCNNVQVCKFLVESGAAVFAMTYSDMQTAADKCEEMEEGYTQCSQFLYGVQEKMGIMNKGVIYALWDYEPQNDDELPMKEGDCMTIIHREDEDEIEWWWARLNDKEGYVPRNLLGLYPRIKPRQRSLA | soluble
17 | MGSDKIHHHHHHMGLAKTRSAAISGVTGVIVDVEANIGAGLPGTYIVGLADAAVAEARQRIKTAVNNSELPWPKTKVIVNLSPASLRKNGAQFDLGICMAIMAASGMHNPDCRDIENTLFLGEIGLDGAIKPISGLVPALLAARGAEIRNVVIPWGNAAEAMAVIDDSAMNVLVARSISEATEWLKGKDDLIAAHDVILDEHATKKQPHKVGDMQDVVGQSDAKKAAEIAVAGGHNIVMIGPPGSGKSMIAQRMAGLLPALTHTEMIEATAIHSVMGQAFNGPMTHPPFVAPHHSITKAALLGGGSGNLQPGAASLAHTGVLFLDEVSEIPANILDCLRMPLECGEIKLMRHRREVTFPARFQLVMATNPCRCAAELPSECRCSATTRARYLSNISGPLRDRLDIFVRTHAQGAVISDANQESSKSIAERVQSARERSEHRWRTAGFTVTTNAAMDPYHLRRHFPADEASMALLSSYLGDGELSQRGVDRALKVAWTLCDLEGKTRPDLGHTAYALELRDDCIRENAA | not soluble
18 | MKLSQVVVSAVAFTGLVSAANSSNSSSSKNAAQPIAGLNNGKVAGAAGVALAGALAFLI | soluble
19 | MTATATEGAKPPFVSRSVLVTGGNRGIGLAIAQRLAADGHKVAVTHRGSGAPKGLFGVEVDVTDSDAVDRAFTAVEEHQGPVEVLVSNAGLSADAFLMRMTEEKFEKVINANLTGAFRVAQRASRSMQRNKFGRMIFIGSVSGLWGIGNQANYAASKAGVIGMARSIARELSKANVTANVVAPGYIDTDMTRALDERIQQGALQFIPAKRVGTPAEVAGVVSFLASEDASYISGAVIPVDGGMGMGH | soluble
20 | MGGIARLYGDSALAHFSQAHVCVVGVGGVGSWAVEALARTGIGRLTLIDLDNVAESNVNRQLHALTGDFGKAKVTALRERITQINPQCEVFEIEDFVTEDNLPEYFGKGFDFVIDAIDQVRVKAAMAAYFVERKQPFVLSGGAGGQKNPALIQTADLSRVTHDPLLANLRYTLRKRYGFSRDTKANMRVPCVYSTENIVPPQSREACSADAAPQGLSCAGYGASMLVTASFGLYCAQAAVEHIADKKLEHHHHHH | not soluble
21 | MAHHHHHHMGFWVFDRVADGFLFRGRRQLSRLHQRNAMLDANGMPLTGDLAAEATTWRSQHAFSGRCGLSVKRSPEPHDNRDEARRNGGGDVPHPEKMLPSYECIISRSPNDYRAWAVDFHLQSTSEDPHVLLSVAPYYAPLQSNFVEGGRSWHPPTTEEQEMYDKRMLETPLIWEEPMTLSLDCTNSGMFLWSEEWKIFGEKIADNCFSRRSQSRGGDDSVDQMGGVSGVREGPYEAFVRLSWRMMSAGENDMYGGEKRSLSDASVRNIIVGPCQGEMTVFLRTSSSDQEEGDVSVPRQINGTGNVGAHGGESVSSGVQVWKRAGGRAVLGDDIPNEIYFTPYVTLMDAGDEAILL | soluble
